# Tested on: O=C(Cc1cccs1)N[C@@H]1C(=O)N2C(C(=O)O)=C(/C=C/c3ccc([N+](=O)[O-])cc3[N+](=O)[O-])CS[C@H]12
# Experiment: steady-state hydrolysis kinetics with purified PenA
# Format: biochemical, Burkholderia multivorans
substance,measurement,value
PenA β-lactamase (Burkholderia multivorans ATCC 17616),Km,147 ± 15 µM
same,kcat/Km,3.2e+06 ± 300000 M⁻¹ s⁻¹

# — article PMC5560099
